Test results reported in article PMC4837482, “The complex binding mode of the peptide hormone H2 relaxin to its receptor RXFP1” (Nature Communications, 2016).

T1: G41A/D42A-RXFP1(1–72) (Homo sapiens, UniProt Q9HBX9, D64A/G63A)
T1 construct: GB1 (N, cleaved yes); made in house; host or cells: E. coli BL21 (DE3) trxB
T1 sequence (Q9HBX9 23-94 G63A/D64A): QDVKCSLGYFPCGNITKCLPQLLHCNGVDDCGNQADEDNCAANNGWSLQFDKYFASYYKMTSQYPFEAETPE

T2: F54A/Y58A RXFP1(1–72) (Homo sapiens, UniProt Q9HBX9, F76A/Y80A)
T2 construct: GB1 (N, cleaved yes); made in house; host or cells: E. coli BL21 (DE3) trxB
T2 sequence (Q9HBX9 23-94 F76A/Y80A): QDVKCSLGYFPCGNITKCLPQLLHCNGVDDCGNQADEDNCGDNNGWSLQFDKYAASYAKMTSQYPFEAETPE

T3: F54A-RXFP1(1–72) (Homo sapiens, UniProt Q9HBX9, F76A)
T3 construct: GB1 (N, cleaved yes); made in house; host or cells: E. coli BL21 (DE3) trxB
T3 sequence (Q9HBX9 23-94 F76A): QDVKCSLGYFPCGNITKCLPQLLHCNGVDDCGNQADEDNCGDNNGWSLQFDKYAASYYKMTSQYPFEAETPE

T4: G45A/W46A-RXFP1(1–72) (Homo sapiens, UniProt Q9HBX9, G67A/W68A)
T4 construct: GB1 (N, cleaved yes); made in house; host or cells: E. coli BL21 (DE3) trxB
T4 sequence (Q9HBX9 23-94 G67A/W68A): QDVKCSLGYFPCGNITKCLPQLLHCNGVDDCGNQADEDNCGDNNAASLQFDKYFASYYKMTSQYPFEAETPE

T5: F50A RXFP1(1–72) (Homo sapiens, UniProt Q9HBX9, F72A)
T5 construct: GB1 (N, cleaved yes); made in house; host or cells: E. coli BL21 (DE3) trxB
T5 sequence (Q9HBX9 23-94 F72A): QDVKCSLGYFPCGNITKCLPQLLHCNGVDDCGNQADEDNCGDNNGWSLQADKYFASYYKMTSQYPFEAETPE

T6: F50A^Ins-RXFP1(1–72) (Homo sapiens, UniProt Q9HBX9, INS72A)
T6 construct: GB1 (N, cleaved yes); made in house; host or cells: E. coli BL21 (DE3) trxB
T6 sequence (Q9HBX9 with tags, fused parts or gaps INS72A): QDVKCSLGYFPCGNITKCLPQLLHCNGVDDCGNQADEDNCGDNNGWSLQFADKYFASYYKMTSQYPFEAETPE

T7: RXFP1 (Homo sapiens, UniProt Q9HBX9)
T7 construct: transiently transfected human embryonic kidney (HEK) 293T cells expressing full-length RXFP1 and mutants; expressed in transfected cells; host or cells: HEK293T
T7 sequence (Q9HBX9 1-757): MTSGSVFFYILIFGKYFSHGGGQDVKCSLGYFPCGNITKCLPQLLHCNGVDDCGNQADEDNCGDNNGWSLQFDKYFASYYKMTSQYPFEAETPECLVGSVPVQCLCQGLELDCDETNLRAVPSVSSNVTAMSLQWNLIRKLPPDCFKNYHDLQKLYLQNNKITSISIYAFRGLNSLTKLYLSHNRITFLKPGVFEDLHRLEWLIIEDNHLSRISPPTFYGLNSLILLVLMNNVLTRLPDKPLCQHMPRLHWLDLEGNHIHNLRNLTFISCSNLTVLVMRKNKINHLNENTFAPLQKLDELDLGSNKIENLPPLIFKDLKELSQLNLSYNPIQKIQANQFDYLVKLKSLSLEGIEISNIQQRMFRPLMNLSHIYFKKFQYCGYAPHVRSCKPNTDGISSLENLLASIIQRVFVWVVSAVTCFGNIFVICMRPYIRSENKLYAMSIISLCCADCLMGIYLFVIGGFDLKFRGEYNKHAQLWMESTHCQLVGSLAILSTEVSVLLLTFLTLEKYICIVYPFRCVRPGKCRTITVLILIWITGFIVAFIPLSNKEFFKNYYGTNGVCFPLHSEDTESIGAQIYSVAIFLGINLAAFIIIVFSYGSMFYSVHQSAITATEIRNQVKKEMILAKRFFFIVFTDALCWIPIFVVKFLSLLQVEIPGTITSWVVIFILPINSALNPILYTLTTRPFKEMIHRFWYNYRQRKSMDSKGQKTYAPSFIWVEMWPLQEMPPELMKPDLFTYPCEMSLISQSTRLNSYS


What was measured:
G41A/D42A-RXFP1(1–72) = molecular target: T1, G41A/D42A-RXFP1(1–72); test: Paramagnetic line-broadening (1H-15N HSQC) titration with Mn2+-DTPA-(A)-H2; assay type: binding; settings: 50 μM G41A/D42A-RXFP1(1–72), 0.2 μM Mn2+-DTPA-(A)-H2; versus wild type
Protocol: (§1) All RXFP1(1–72) protein samples for nuclear magnetic resonance (NMR) experiments were prepared from lyophilized protein in 50 mM imidazole, with 10 mM CaCl2 at pH 6.8. Recombinant human gene-2 H2 relaxin peptide was kindly provided by Corthera. EL1^(475–486)/EL2-GB1 samples were prepared as described above. Titrant and titrand were dialyzed in the same buffer in the same vessel. All NMR experiments were routinely collected at 25 °C on a 700-MHz Bruker Avance HDIII spectrometer equipped with triple resonance cryoprobe. […] Backbone assignments were made from 3D HNCACB, HNCOCACB, HNCO and HNCACO experiments. Spectra were processed using NMRPipe (ref. [43]) and typically Fourier-transformed after applying Lorentz-to-Gauss window functions in the direct dimension and cosine bells in the indirect dimensions. NMR data were analysed using SPARKY (Goddard, T.D. and Kneller, D.G., University of California, San Francisco). Assignments of the mutant RXFP1(1–72) proteins were determined from the assignments of wild-type RXFP1(1–72).
(§2) ^15N{^1H}-NOE experiments[45] (2,048 × 256 data points) were acquired with a saturation pulse of 4 s and an additional relaxation delay of 5 s. Sample conditions were 150 μM RXFP(1–72) or mutants either without or with 450 μM H2 relaxin. Binding to Mn^2+-DTPA-(A)-H2 to RXFP1(1–72) and mutants was monitored by recording 2D ^1H-^15N HSQC (2,048 × 256 data points) for 0.2 μM Mn^2+-DTPA-(A)-H2 against 50 μM RXFP1(1–72). H2 relaxin and its truncates such as A-chain (9–24), H2/I5 chimera and Phe23Ala A-chain mutant H2 were titrated into a complex of 50 μM RXFP1(1–72) and 0.2 μM Mn^2+-DTPA-(A)-H2 with increasing concentrations ranging from 5 to 50 μM.

F54A/Y58A RXFP1(1–72) = molecular target: T2, F54A/Y58A RXFP1(1–72); test: as above; assay type: binding; settings: 50 μM F54A/Y58A RXFP1(1–72), 0.2 μM Mn2+-DTPA-(A)-H2; versus wild type
Protocol: as §1, §2

F54A-RXFP1(1–72) = molecular target: T3, F54A-RXFP1(1–72); test: as above; assay type: binding; settings: 50 μM F54A-RXFP1(1–72), 0.2 μM Mn2+-DTPA-(A)-H2; versus wild type
Protocol: as §1, §2

G45A/W46A-RXFP1(1–72) = molecular target: T4, G45A/W46A-RXFP1(1–72); test: as above; assay type: binding; settings: 50 μM G45A/W46A-RXFP1(1–72), 0.2 μM Mn2+-DTPA-(A)-H2; versus wild type
Protocol: as §1, §2

F50A RXFP1(1–72) = molecular target: T5, F50A RXFP1(1–72); test: as above; assay type: binding; settings: 50 μM F50A RXFP1(1–72), 0.2 μM Mn2+-DTPA-(A)-H2; versus wild type
Protocol: as §1, §2

F50A^Ins-RXFP1(1–72) = molecular target: T6, F50A^Ins-RXFP1(1–72); test: as above; assay type: binding; settings: 50 μM F50A^Ins-RXFP1(1–72), 0.2 μM Mn2+-DTPA-(A)-H2; versus wild type
Protocol: as §1, §2

RXFP1 [1] = molecular target: T7, RXFP1; test: cAMP activity assay (pCRE β-galactosidase reporter), transfected HEK293T cells; assay type: cell-based; settings: Mn2+ replacing Eu3+ in the DTPA cage; method not described
Protocol: Media was aspirated and plates stored frozen at −80 °C overnight. […] H2 relaxin dilutions were prepared in minimal media containing 1% DMSO. Positive and negative control stimulations were achieved by incubation with 5 μM Forskolin and minimal media/1% DMSO, respectively. Plates were developed by 10 min of incubation in 25 μl of lysis buffer 1 (100 mM Na2HPO4, pH 8.0, 0.2 mM MgSO4 0.01 mM MnCl2); a further 10 min of incubation in 100 μl of buffer 2 (100 mM Na2HPO4, pH 8.0, 2 mM MgSO4, 0.1 mM MnCl2, 0.5% Triton X-100, 40 mM β-mercaptoethanol); then to each well 25 μl of the β-galactosidase substrate, chlorophenol red-β-D-galactopyranoside (Roche) was added. All incubation steps were conducted with orbital shaking. Color-change was monitored and readings were taken on a Benchmark Plus Microplate Reader (Bio-Rad) at 570 nm. A minimum of three separate experiments were performed, each of them in triplicate, and data were pooled and presented as percentages of the maximum response induced by 5 μM Forskolin±s.e.m.

RXFP1 [2] = molecular target: T7, RXFP1; test: Eu-H2 relaxin saturation binding assay, transfected HEK293T cells; settings: Mn2+ replacing Eu3+ in the DTPA cage; method not described
[3] = molecular target: T8, Europium-labelled H2 relaxin (human, UniProt P04090 162-185; P04090 25-53, DTPA cage loaded with Eu^3+ on the N-terminus of the A-chain); test: europium-labelled ligand saturation binding on cells (time-resolved fluorescence); HEK293T cells transiently transfected with receptor, 96-well plates; increasing Eu-H2 relaxin (maximum 15 nM) with or without 1 μM unlabelled H2 relaxin, 1 h, room temperature; 20 mM HEPES pH 7.5, 1.5 mM CaCl2, 50 mM NaCl, 0.01% NaN3, 1% BSA; one-site fit; settings: one partner purified
T8 construct: A chain of human gene-2 (H2) relaxin; numbers count on: the A chain; B chain of human gene-2 (H2) relaxin; numbers count on: the B chain; also called Eu-H2 relaxin; Eu-H2

Molecule | line-broadening by Mn2+-DTPA-(A)-H2 (binding) (G41A/D42A-RXFP1(1–72)) | line-broadening by Mn2+-DTPA-(A)-H2 (binding) (F54A/Y58A RXFP1(1–72)) | line-broadening by Mn2+-DTPA-(A)-H2 (binding) (F54A-RXFP1(1–72)) | line-broadening by Mn2+-DTPA-(A)-H2 (binding) (G45A/W46A-RXFP1(1–72)) | line-broadening by Mn2+-DTPA-(A)-H2 (binding) (F50A RXFP1(1–72)) | line-broadening by Mn2+-DTPA-(A)-H2 (binding) (F50A^Ins-RXFP1(1–72)) | activating RXFP1 (RXFP1 [1]) | binding to RXFP1 (RXFP1 [2]) | Kd [3]
Mn^2+-DTPA-(A)-H2: H2 relaxin with a DTPA cage at the N-terminus of the A-chain loaded with Mn2+ (paramagnetic label) | attenuated | substantially reduced | less than that observed for wild-type RXFP1(1–72) | substantially less than that observed for wild-type RXFP1(1–72) | substantially reduced | reduced peak broadening | no difference | no difference | –
RXFP1 G41A/D42A, full length (receptor) QDVKCSLGYFPCGNITKCLPQLLHCNGVDDCGNQADEDNCAANNGWSLQFDKYFASYYKMTSQYPFEAETPECLVGSVPVQCLCQGLELDCDETNLRAVPSVSSNVTAMSLQWNLIRKLPPDCFKNYHDLQKLYLQNNKITSISIYAFRGLNSLTKLYLSHNRITFLKPGVFEDLHRLEWLIIEDNHLSRISPPTFYGLNSLILLVLMNNVLTRLPDKPLCQHMPRLHWLDLEGNHIHNLRNLTFISCSNLTVLVMRKNKINHLNENTFAPLQKLDELDLGSNKIENLPPLIFKDLKELSQLNLSYNPIQKIQANQFDYLVKLKSLSLEGIEISNIQQRMFRPLMNLSHIYFKKFQYCGYAPHVRSCKPNTDGISSLENLLASIIQRVFVWVVSAVTCFGNIFVICMRPYIRSENKLYAMSIISLCCADCLMGIYLFVIGGFDLKFRGEYNKHAQLWMESTHCQLVGSLAILSTEVSVLLLTFLTLEKYICIVYPFRCVRPGKCRTITVLILIWITGFIVAFIPLSNKEFFKNYYGTNGVCFPLHSEDTESIGAQIYSVAIFLGINLAAFIIIVFSYGSMFYSVHQSAITATEIRNQVKKEMILAKRFFFIVFTDALCWIPIFVVKFLSLLQVEIPGTITSWVVIFILPINSALNPILYTLTTRPFKEMIHRFWYNYRQRKSMDSKGQKTYAPSFIWVEMWPLQEMPPELMKPDLFTYPCEMSLISQSTRLNSYS | – | – | – | – | – | – | – | – | > 20 nM
RXFP1 G45A/W46A, full length (receptor) QDVKCSLGYFPCGNITKCLPQLLHCNGVDDCGNQADEDNCGDNNAASLQFDKYFASYYKMTSQYPFEAETPECLVGSVPVQCLCQGLELDCDETNLRAVPSVSSNVTAMSLQWNLIRKLPPDCFKNYHDLQKLYLQNNKITSISIYAFRGLNSLTKLYLSHNRITFLKPGVFEDLHRLEWLIIEDNHLSRISPPTFYGLNSLILLVLMNNVLTRLPDKPLCQHMPRLHWLDLEGNHIHNLRNLTFISCSNLTVLVMRKNKINHLNENTFAPLQKLDELDLGSNKIENLPPLIFKDLKELSQLNLSYNPIQKIQANQFDYLVKLKSLSLEGIEISNIQQRMFRPLMNLSHIYFKKFQYCGYAPHVRSCKPNTDGISSLENLLASIIQRVFVWVVSAVTCFGNIFVICMRPYIRSENKLYAMSIISLCCADCLMGIYLFVIGGFDLKFRGEYNKHAQLWMESTHCQLVGSLAILSTEVSVLLLTFLTLEKYICIVYPFRCVRPGKCRTITVLILIWITGFIVAFIPLSNKEFFKNYYGTNGVCFPLHSEDTESIGAQIYSVAIFLGINLAAFIIIVFSYGSMFYSVHQSAITATEIRNQVKKEMILAKRFFFIVFTDALCWIPIFVVKFLSLLQVEIPGTITSWVVIFILPINSALNPILYTLTTRPFKEMIHRFWYNYRQRKSMDSKGQKTYAPSFIWVEMWPLQEMPPELMKPDLFTYPCEMSLISQSTRLNSYS | – | – | – | – | – | – | – | – | > 20 nM
